Article PMC7226325

Molecular target: recombinant Tepary bean lectin (rTBL-1) (Phaseolus acutifolius (Tepary bean))
Assay: SEC; ENrich SEC 650 column, calibrated with gel filtration standard; 200 uL of protein at 10 mg/mL; 20 mM MES pH 6.5, 100 mM NaCl

stoichiometry N: 4
Substance: recombinant Tepary bean lectin (rTBL-1) (natural protein)
